Laboratory results from publication PMC7402679.
Several values for one entry are separate records, joined by “and”; a condition that tells them apart may be missing. Equal entries are not always repeated.

Target: HA-tagged MnPV L1_(SHORT), expressed in Mastomys-derived fibroblasts (Mastomys natalensis papillomavirus (MnPV))
Assay: SDS-PAGE and western blot of high-MW (multimer) bands; lysates of transfected MaFi132 cells in 1.25x Laemmli buffer (2.5% SDS, 2.5% beta-mercaptoethanol), 95 C 5 min; 8% SDS-PAGE; detected with mAb 2D11, Mastomys serum mix and anti-HA

Q: Which stoichiometry N does the source give for “HA-tagged MnPV L1_(SHORT), expressed in Mastomys-derived fibroblasts (natural protein)” here?
A: 2 and 3
